{"source": "paper PMC9443353", "key": {"[1]": {"molecular_target": "T1, DENV2 NS1 (Dengue virus serotype 2) (UniProt Q9WDA6)", "T1 sequence": "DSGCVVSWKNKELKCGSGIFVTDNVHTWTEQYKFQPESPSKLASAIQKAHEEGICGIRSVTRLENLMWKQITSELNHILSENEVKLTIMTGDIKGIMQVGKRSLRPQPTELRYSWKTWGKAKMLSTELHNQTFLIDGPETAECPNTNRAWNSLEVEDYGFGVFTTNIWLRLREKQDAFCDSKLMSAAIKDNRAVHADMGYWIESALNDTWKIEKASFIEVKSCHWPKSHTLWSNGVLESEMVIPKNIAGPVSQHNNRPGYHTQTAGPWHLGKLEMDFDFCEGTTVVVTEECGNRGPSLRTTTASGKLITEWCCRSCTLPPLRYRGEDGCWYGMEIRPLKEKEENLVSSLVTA", "test": "filter binding with qPCR"}, "[2]": {"molecular_target": "T2, DENV4 NS1 (Dengue virus serotype 4) (UniProt Q2YHF0)", "T2 sequence": "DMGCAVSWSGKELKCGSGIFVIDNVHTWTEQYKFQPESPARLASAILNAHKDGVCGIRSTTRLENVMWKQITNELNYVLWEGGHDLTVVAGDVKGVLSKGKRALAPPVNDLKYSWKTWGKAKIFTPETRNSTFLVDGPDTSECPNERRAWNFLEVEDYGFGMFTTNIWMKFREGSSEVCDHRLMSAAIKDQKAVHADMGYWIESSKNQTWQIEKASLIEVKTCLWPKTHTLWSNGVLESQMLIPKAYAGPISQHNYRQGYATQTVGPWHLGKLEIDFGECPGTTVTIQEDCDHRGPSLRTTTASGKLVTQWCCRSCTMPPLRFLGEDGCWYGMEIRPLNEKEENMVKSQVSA", "test": "filter binding with qPCR", "details": "ELONA: borate buffer (60 mM in selection), 37 °C, 30 min, pH not stated; specificity: selection buffer, filtration, qPCR; FET: human serum as gate electrolyte …"}}, "data": [{"sequence": "CTTCTGCCCGCCTCCTTCCGGGCCCCGGGGGGTGTCCAGGCCCATGCGTCGTCCGCGGGGAGACGAGATAGGCGGACACT [ZIKV60]", "values": [{"measurement": "binding signal (ratio ZIKV NS1/DENV2 NS1 bound)", "setting": "[1]", "value": 14.8}, {"measurement": "binding signal (ratio ZIKV NS1/DENV4 NS1 bound)", "setting": "[2]", "value": 14.8}]}]}
